Measurements reported in the RNAGym collection of RNA variant scans (doi:10.7554/elife.90254).

B1: LINE1-full (parent)
chain: UACGUAGGUGGUUUUCCCCUGAUAGUGCUAAGGGGGCCUGGAAGUUUGGACUGGGCAGAGCUCAACACAGCGUGGCAAAGUGGCUGUGGCUAGACUGCCUCUCUGGAUUCCUCGUCACUCAGCAGGGCAUCUCUGAGAGAAAUGCC

Variants of: B1
Assay: self-cleavage, relative activity (ratio to wild type); higher = more cleavage; in vitro, sequencing; the parent is a self-cleaving ribozyme

Variant	self-cleavage
UACGUAGGUGGUUUUCCCCUGAUAGUGCUAAGGGGGCCUGGAAGUUUGGACUGGGCAGAGCUCAACACAGCGUGGCAAAGUGGCUGUGGCUAGACUGCCUCUCUAGAUUCCUCGUCACUCAGCAGGGCCUCUCUGAGAGAAAUGCC [G105A A129C]	2.69
UACGUAGGUGGUUUUCCCCUGAUAGUGCUAAGGGGGCCUGGAAGUUUGGACUGGGCAGAGCUCAACACAGCGUGGCAAAGUGGCUGUGGCUAGACUGCCUCUCCGGAUUCCUCGUCACUCAGCAGGGCAUCUCCGAGAGAAAUGCC [U104C U134C]	1.62
UACGUAGGUGGUUUUCCCCUGAUAGUGCUAAGGGGGCCUGGAAGUUUGGACUGGGCAGAGCUCAACACAGCGUGGCAAAGUGGCUGUGGCUAGACUGCCUCUCUGAAUUCCUCGUCACUCGGCAGGGCAUCUCUGAGAGAAAUGCC [G106A A121G]	1.78
UACGUAGGUGGUUUUCCCCUGAUAGUGCUAAGGGGGCCUGGAAGUUUGGACUGGGCAGAGCUCAACACAGCGUGGCAAAGUGGCUGUGGCUAGACUGCCUCUCGGGAUUCCUCGUCACUCAGCAGGGCAUCUCUGAGAGGAAUGCC [U104G A140G]	0.73
UACGUAGGUGGUUUUCCCCUGAUAGUGCUAAGGGGGCCUGGAAGUUUGGACUGGGCAGAGCUCAACACAGCGUGGCAAAGUGGCUGUGGCUAGACUGCCUCUCUAGAUUCCUCGUCACUCUGCAGGGCAUCUCUGAGAGAAAUGCC [G105A A121U]	1.46
UACGUAGGUGGUUUUCCCCUGAUAGUGCUAAGGGGGCCUGGAAGUUUGGACUGGGCAGAGCUCAACACAGCGUGGCAAAGUGGCUGUGGCUAGACUGCCUCUCUCGAUUCCUCGUCACUCAGCAGGGCAUCCCUGAGAGAAAUGCC [G105C U132C]	1.53
UACGUAGGUGGUUUUCCCCUGAUAGUGCUAAGGGGGCCUGGAAGUUUGGACUGGGCAGAGCUCAACACAGCGUGGCAAAGUGGCUGUGGCUAGACUGCCUCUCUCGAUUCCUCGUCACUCAGCAGGGCAUCUCUGAGAGAAAUGCC [G105C]	1.59
UACGUAGGUGGUUUUCCCCUGAUAGUGCUAAGGGGGCCUGGAAGUUUGGACUGGGCAGAGCUCAACACAGCGUGGCAAAGUGGCUGUGGCUAGACUGCCUCUCUUGAUUCCUCGUCACUCAGCAGGGCAUCUCUGAGAGAAAUGCC [G105U]	1.37
UACGUAGGUGGUUUUCCCCUGAUAGUGCUAAGGGGGCCUGGAAGUUUGGACUGGGCAGAGCUCAACACAGCGUGGCAAAGUGGCUGUGGCUAGACUGCCUCUCUAGAUUCCUCGUCACUCAGCAGGGCAUCUCUGAGAGAAAUGCC [G105A]	1.43
UACGUAGGUGGUUUUCCCCUGAUAGUGCUAAGGGGGCCUGGAAGUUUGGACUGGGCAGAGCUCAACACAGCGUGGCAAAGUGGCUGUGGCUAGACUGCCUCUCGGGAUUCCUCGACACUCAGCAGGGCAUCUCUGAGAGAAAUGCC [U104G U115A]	0.87
UACGUAGGUGGUUUUCCCCUGAUAGUGCUAAGGGGGCCUGGAAGUUUGGACUGGGCAGAGCUCAACACAGCGUGGCAAAGUGGCUGUGGCUAGACUGCCUCUCUGAAUUCCUCGUCACUCAGCAGGGCAUCUCUGAGAGAAAUGCC [G106A]	1.48
UACGUAGGUGGUUUUCCCCUGAUAGUGCUAAGGGGGCCUGGAAGUUUGGACUGGGCAGAGCUCAACACAGCGUGGCAAAGUGGCUGUGGCUAGACUGCCUCUCUUGAUUCCUCGUCACUCAGCAGGGCAUCUCUGAGAGAAAAGCC [G105U U143A]	1.34
UACGUAGGUGGUUUUCCCCUGAUAGUGCUAAGGGGGCCUGGAAGUUUGGACUGGGCAGAGCUCAACACAGCGUGGCAAAGUGGCUGUGGCUAGACUGCCUCUCUGAAUUCCUCGUCACUCAGCUGGGCAUCUCUGAGAGAAAUGCC [G106A A124U]	1.54
UACGUAGGUGGUUUUCCCCUGAUAGUGCUAAGGGGGCCUGGAAGUUUGGACUGGGCAGAGCUCAACACAGCGUGGCAAAGUGGCUGUGGCUAGACUGCCUCUCGGGAUUCCUCGUCACUCAGCAGGGCACCUCUGAGAGAAAUGCC [U104G U130C]	0.75
UACGUAGGUGGUUUUCCCCUGAUAGUGCUAAGGGGGCCUGGAAGUUUGGACUGGGCAGAGCUCAACACAGCGUGGCAAAGUGGCUGUGGCUAGACUGCCUCUCUUGAUUCCUCGUCGCUCAGCAGGGCAUCUCUGAGAGAAAUGCC [G105U A117G]	1.74
UACGUAGGUGGUUUUCCCCUGAUAGUGCUAAGGGGGCCUGGAAGUUUGGACUGGGCAGAGCUCAACACAGCGUGGCAAAGUGGCUGUGGCUAGACUGCCUCUCUUGAUUCCUCGACACUCAGCAGGGCAUCUCUGAGAGAAAUGCC [G105U U115A]	1.72
UACGUAGGUGGUUUUCCCCUGAUAGUGCUAAGGGGGCCUGGAAGUUUGGACUGGGCAGAGCUCAACACAGCGUGGCAAAGUGGCUGUGGCUAGACUGCCUCUCUUGCUUCCUCGUCACUCAGCAGGGCAUCUCUGAGAGAAAUGCC [G105U A107C]	2.34
UACGUAGGUGGUUUUCCCCUGAUAGUGCUAAGGGGGCCUGGAAGUUUGGACUGGGCAGAGCUCAACACAGCGUGGCAAAGUGGCUGUGGCUAGACUGCCUCUCCGGAUUCCUCGUCACUCAGCAGGGCAGCUCUGAGAGAAAUGCC [U104C U130G]	1.5
UACGUAGGUGGUUUUCCCCUGAUAGUGCUAAGGGGGCCUGGAAGUUUGGACUGGGCAGAGCUCAACACAGCGUGGCAAAGUGGCUGUGGCUAGACUGCCUCUCUUGAUUCCUCGUCACUCAGCAGGGCAUCCCUGAGAGAAAUGCC [G105U U132C]	0
